This note sets out measurements from patent US6706762.

“And” between values parts separate entries of the source, which are not always exact repeats. Identical values can stand only once.

This assay has as its target GAL-C-SMRT (yeast) (UniProt P04386). Kind of assay: cell-based or functional assay.

VP16-PLZF (from UniProt Q05516 1-673) gave a UAS reporter expression, mammalian two-hybrid of 25 fold. As to “VP-PML-RARα (from UniProt P29590 1-552; P10276 61-462)”, the fold lower sensitivity to ATRA than the SMRT/RARα interaction, mammalian two-hybrid was 100 fold and 200 fold.
